The values that follow come from paper doi:10.1101/2020.06.22.166033.

This experiment has as its target SARS-CoV-2-RBD-AVI probe (SARS-CoV-2) (UniProt P0DTC2). Nature of the experiment: SPR.

As a reminder, the Kd is the equilibrium constant for the complex coming apart. High values mean weaker binding, low ones tighter binding. On to CR3022 Fab, for which the Kd stood at 25 nM.
